Source: patent US20100260668A1 (published 2010)

Key:
recombinant human HGF = recombinant human HGF (human, UniProt P14210 32-728); assay: cell-based or functional assay
[1] = biological target: recombinant human VEGF165 (human, UniProt P15692-4 27-191); assay: cell-based or functional assay
[2] = biological target: T1, placental growth factor (PLGF) (UniProt P49763-2 21-149, limits assumed); assay: ligand-receptor binding competition assay, PlGF binding to VEGFR1; N-terminal VD
T1 construct: also called P1GF
T1 sequence (looked up): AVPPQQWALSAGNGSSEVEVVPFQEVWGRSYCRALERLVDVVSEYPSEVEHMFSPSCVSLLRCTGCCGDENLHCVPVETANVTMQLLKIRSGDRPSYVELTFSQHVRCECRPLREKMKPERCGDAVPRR

biotinylated VEGF = biotinylated VEGF (UniProt P15692-4 27-191, limits assumed, biotinylated); assay: VEGF capture ELISA, DVD-Ig captured by anti-human Fc, biotinylated VEGF
[3] = biological target: T2, biotin-labeled human DLL4 extracellular domain (human, UniProt Q9NR61 27-529, biotin-labeled); assay: DLL4 capture ELISA, DVD-Ig captured by anti-human Fc, biotin-labeled human DLL4 ECD
T2 construct: extracellular domain

Sequence of recombinant human HGF (P14210 32-728 limits assumed): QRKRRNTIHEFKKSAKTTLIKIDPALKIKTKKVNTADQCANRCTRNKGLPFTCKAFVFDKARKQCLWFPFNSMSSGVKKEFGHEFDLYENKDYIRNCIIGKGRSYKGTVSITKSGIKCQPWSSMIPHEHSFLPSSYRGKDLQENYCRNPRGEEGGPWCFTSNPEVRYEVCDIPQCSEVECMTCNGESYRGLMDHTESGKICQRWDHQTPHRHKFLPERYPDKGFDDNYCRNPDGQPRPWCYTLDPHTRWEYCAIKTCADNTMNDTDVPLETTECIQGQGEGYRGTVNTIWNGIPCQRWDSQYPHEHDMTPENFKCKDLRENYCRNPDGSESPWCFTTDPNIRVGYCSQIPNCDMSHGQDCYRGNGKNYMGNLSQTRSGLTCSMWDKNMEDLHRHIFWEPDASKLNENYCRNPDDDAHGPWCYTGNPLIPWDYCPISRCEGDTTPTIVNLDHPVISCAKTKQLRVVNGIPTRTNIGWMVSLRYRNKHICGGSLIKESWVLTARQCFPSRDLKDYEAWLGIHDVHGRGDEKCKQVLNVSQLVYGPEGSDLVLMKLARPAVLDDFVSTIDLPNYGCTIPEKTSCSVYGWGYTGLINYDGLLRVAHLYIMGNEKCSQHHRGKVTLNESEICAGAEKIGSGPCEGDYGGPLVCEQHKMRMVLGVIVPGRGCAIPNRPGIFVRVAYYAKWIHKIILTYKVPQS
Sequence of biotinylated VEGF (P15692 other isoform, or with tags, fused parts or gaps limits assumed): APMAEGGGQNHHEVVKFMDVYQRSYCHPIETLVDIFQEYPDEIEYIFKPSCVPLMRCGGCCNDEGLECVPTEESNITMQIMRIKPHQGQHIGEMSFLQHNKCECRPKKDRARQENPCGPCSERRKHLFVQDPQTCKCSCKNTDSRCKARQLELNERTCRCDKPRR
Sequence of recombinant human VEGF165 (P15692 other isoform, or with tags, fused parts or gaps limits assumed): as above

B1: AB012 (antibody, human IgG1, kappa, V domains shown)
VH: QVQLVESGGGLVKPGGSLRLSCAASGFTFSDYYMSWIRQAPGKGLEWVSYISSSGSTIYYADSVKGRFTISRDNAKNSLYLQMNSLRAEDTAVYYCARDEYNSGWYVLFDYWGQGTLVTVSS
VL: DIQMTQSPSSVSASVGDRVTITCRASQGISSWLAWYQQKPGKAPNLLIYEASSLQSGVPSRFGGSGSGTDFTLTISSLQPEDFATYYCQQANGFPWTFGQGTKVEIKR
Inhibition Of Akt Phosphorylation (% Inhibition At 0.67 nM Ab/DVD) (recombinant human HGF): 79% | Inhibition Of Akt Phosphorylation (% Inhibition At 6.7 nM Ab/DVD) (recombinant human HGF): 110% | Inhibition Of Akt Phosphorylation (% Inhibition At 67 nM Ab/DVD) (recombinant human HGF): 106%

B2: DVD045 (bispecific antibody, human IgG1, kappa)
heavy: not shown
light: DIQMTQSPSSLSASVGDRVTITCSASQDISNYLNWYQQKPGKAPKVLIYFTSSLHSGVPSRFSGSGSGTDFTLTISSLQPEDFATYYCQQYSTVPWTFGQGTKVEIKRTVAAPDIQMTQSPSSVSASVGDRVTITCRASQGISSWLAWYQQKPGKAPNLLIYEASSLQSGVPSRFGGSGSGTDFTLTISSLQPEDFATYYCQQANGFPWTFGQGTKVEIKRTVAAPSVFIFPPSDEQLKSGTASVVCLLNNFYPREAKVQWKVDNALQSGNSQESVTEQDSKDSTYSLSSTLTLSKADYEKHKVYACEVTHQGLSSPVTKSFNRGEC
Inhibition Of Akt Phosphorylation (% Inhibition At 0.67 nM Ab/DVD) (recombinant human HGF): -15% | Inhibition Of Akt Phosphorylation (% Inhibition At 6.7 nM Ab/DVD) (recombinant human HGF): -2% | Inhibition Of Akt Phosphorylation (% Inhibition At 67 nM Ab/DVD) (recombinant human HGF): 64%

B3: DVD471 (bispecific antibody, human IgG1, kappa, L234A L235A)
heavy: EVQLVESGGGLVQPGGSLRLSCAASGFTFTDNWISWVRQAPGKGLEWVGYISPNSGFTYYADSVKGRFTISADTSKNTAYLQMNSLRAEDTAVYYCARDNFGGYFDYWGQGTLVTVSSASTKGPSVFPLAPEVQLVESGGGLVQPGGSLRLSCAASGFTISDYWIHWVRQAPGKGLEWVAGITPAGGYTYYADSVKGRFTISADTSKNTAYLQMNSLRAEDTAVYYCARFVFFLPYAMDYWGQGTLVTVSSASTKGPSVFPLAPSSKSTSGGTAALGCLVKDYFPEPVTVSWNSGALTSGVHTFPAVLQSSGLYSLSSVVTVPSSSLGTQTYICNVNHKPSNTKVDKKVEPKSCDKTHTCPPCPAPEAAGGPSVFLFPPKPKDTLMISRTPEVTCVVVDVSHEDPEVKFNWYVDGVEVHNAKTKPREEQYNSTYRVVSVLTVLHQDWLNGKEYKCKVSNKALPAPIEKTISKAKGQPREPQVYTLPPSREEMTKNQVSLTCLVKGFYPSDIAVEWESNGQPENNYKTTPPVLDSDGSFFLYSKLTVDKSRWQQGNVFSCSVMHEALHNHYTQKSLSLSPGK
light: DIQMTQSPSSLSASVGDRVTITCRASQDVSTAVAWYQQKPGKAPKLLIYSASFLYSGVPSRFSGSGSGTDFTLTISSLQPEDFATTYYCQQSYTGTVTFGQGTKVEIKRTVAAPSVFIFPPDIQMTQSPSSLSASVGDRVTITCRASQDVSTAVAWYQQKPGKAPKLLIYSASFLYSGVPSRFSGSGSGTDFTLTISSLQPEDFATYYCQQSYTTPPTFGQGTKVEIKRTVAAPSVFIFPPSDEQLKSGTASVVCLLNNFYPREAKVQWKVDNALQSGNSQESVTEQDSKDSTYSLSSTLTLSKADYEKHKVYACEVTHQGLSSPVTKSFNRGEC
inhibition of HUVEC proliferation (IC50) [1]: 6.8 nM

B4: DVD573 (bispecific antibody, human IgG1, kappa)
heavy: not shown
light: DIVLTQSPDSLAVSLGERVTMNCKSSQSLLNSGMRKSFLAWYQQKPGQSPKLLIYWASTRESGVPDRFTGSGSGTDFTLTISSVQAEDVAVYYCKQSYHLFTFGSGTKLEIKRTVAAPDIQMTQSPSSLSASVGDRVTITCRASQDVSTAVAWYQQKPGKAPKLLIYSASFLYSGVPSRFSGSGSGTDFTLTISSLQPEDFATYYCQQSYTTPPTFGQGTKVEIKRTVAAPSVFIFPPSDEQLKSGTASVVCLLNNFYPREAKVQWKVDNALQSGNSQESVTEQDSKDSTYSLSSTLTLSKADYEKHKVYACEVTHQGLSSPVTKSFNRGEC
notes: also called DVD573H; DVD573L
IC50 [2]: 2.59 nM

B5: DVD589 (bispecific antibody, human IgG1, kappa)
heavy: not shown
light: B4 light
notes: also called DVD589VH; DVD589VL
IC50 [2]: 2.87 nM

B6: DVD583 (bispecific antibody, human IgG1, kappa)
heavy: not shown
light: DIVLTQSPDSLAVSLGERVTMNCKSSQSLLNSGMRKSFLAWYQQKPGQSPKLLIYWASTRESGVPDRFTGSGSGTDFTLTISSVQAEDVAVYYCKQSYHLFTFGSGTKLEIKRTVAAPSVFIFPPDIQMTQSPSSLSASVGDRVTITCRASQVIRRSLAWYQQKPGKAPKLLIYAASNLASGVPSRFSGSGSGTDFTLTISSLQPEDFATYYCQQSNTSPLTFGQGTKVEIKRTVAAPSVFIFPPSDEQLKSGTASVVCLLNNFYPREAKVQWKVDNALQSGNSQESVTEQDSKDSTYSLSSTLTLSKADYEKHKVYACEVTHQGLSSPVTKSFNRGEC
notes: DVD-Ig, N-term PlGF (AB047) / C-term VEGF (AB071); also called DVD583H; DVD583L
IC50 [2]: 3.25 nM

B7: DVD599 (bispecific antibody, human IgG1, kappa)
heavy: not shown
light: B6 light
notes: DVD-Ig, N-term PlGF (AB047) / C-term VEGF (AB071); also called DVD599VH; DVD599VL
IC50 [2]: 3.19 nM

B8: DVD476 (bispecific antibody, human IgG1, kappa)
heavy: not shown
light: DIQMTQSPSSLSASVGDRVTITCSASQDISNYLNWYQQKPGKAPKVLIYFTSSLHSGVPSRFSGSGSGTDFTLTISSLQPEDFATYYCQQYSTVPWTFGQGTKVEIKRTVAAPDIQMTQSPSSLSASVGDRVTITCRASQDVSTAVAWYQQKPGKAPKLLIYSASFLYSGVPSRFSGSGSGTDFTLTISSLQPEDFATTYYCQQSYTGTVTFGQGTKVEIKRTVAAPSVFIFPPSDEQLKSGTASVVCLLNNFYPREAKVQWKVDNALQSGNSQESVTEQDSKDSTYSLSSTLTLSKADYEKHKVYACEVTHQGLSSPVTKSFNRGEC
notes: DVD-Ig, HC long / LC short; DLL4 domain C-terminal; also called VEGF / DLL4 DVD-Ig; DVD476H
EC50 (biotinylated VEGF): 0.22 nM | EC50 [3]: 0.21 nM

B9: DVD470 (bispecific antibody, human IgG1, kappa)
heavy: not shown
light: DIQMTQSPSSLSASVGDRVTITCSASQDISNYLNWYQQKPGKAPKVLIYFTSSLHSGVPSRFSGSGSGTDFTLTISSLQPEDFATYYCQQYSTVPWTFGQGTKVEIKRTVAAPSVFIFPPDIQMTQSPSSLSASVGDRVTITCRASQDVSTAVAWYQQKPGKAPKLLIYSASFLYSGVPSRFSGSGSGTDFTLTISSLQPEDFATTYYCQQSYTGTVTFGQGTKVEIKRTVAAPSVFIFPPSDEQLKSGTASVVCLLNNFYPREAKVQWKVDNALQSGNSQESVTEQDSKDSTYSLSSTLTLSKADYEKHKVYACEVTHQGLSSPVTKSFNRGEC
notes: DVD-Ig, HC long / LC long; DLL4 domain C-terminal; also called VEGF / DLL4 DVD-Ig; DVD470H
EC50 (biotinylated VEGF): 0.27 nM | EC50 [3]: 0.16 nM

B10: DVD482 (bispecific antibody, human IgG1, kappa)
heavy: not shown
light: B9 light
notes: DVD-Ig, HC short / LC long; DLL4 domain C-terminal; also called VEGF / DLL4 DVD-Ig; DVD482H
EC50 (biotinylated VEGF): 0.22 nM | EC50 [3]: 0.17 nM

B11: AB008 (antibody, human IgG1, kappa, V domains shown)
VH: QVQLVQSGAEVKKPGSSVKVSCKASGYTFTSYWLHWVRQAPGQGLEWIGYINPRNDYTEYNQNFKDKATITADESTNTAYMELSSLRSEDTAFYFCARRDITTFYWGQGTTVTVSS
VL: DIQLTQSPSSLSASVGDRVTMSCKSSQSVLYSANHKNYLAWYQQKPGKAPKLLIYWASTRESGVPSRFSGSGSGTDFTFTISSLQPEDIATYYCHQYLSSWTFGGGTKLEIKR
Inhibition Of Akt Phosphorylation (% Inhibition At 6.7 nM Ab/DVD) (recombinant human HGF): -13% | Inhibition Of Akt Phosphorylation (% Inhibition At 67 nM Ab/DVD) (recombinant human HGF): 8%

B12: DVD575 (bispecific antibody, human IgG1, kappa)
heavy: not shown
light: DIVLTQSPDSLAVSLGERVTMNCKSSQSLLNSGMRKSFLAWYQQKPGQSPKLLIYWASTRESGVPDRFTGSGSGTDFTLTISSVQAEDVAVYYCKQSYHLFTFGSGTKLEIKRTVAAPDIQMTQSPSSLSASVGDRVTITCRASQVIRRSLAWYQQKPGKAPKLLIYAASNLASGVPSRFSGSGSGTDFTLTISSLQPEDFATYYCQQSNTSPLTFGQGTKVEIKRTVAAPSVFIFPPSDEQLKSGTASVVCLLNNFYPREAKVQWKVDNALQSGNSQESVTEQDSKDSTYSLSSTLTLSKADYEKHKVYACEVTHQGLSSPVTKSFNRGEC
notes: DVD-Ig, N-term PlGF (AB047) / C-term VEGF (AB071); also called DVD575H; DVD575L
IC50 [2]: 2.9 nM

B13: DVD591 (bispecific antibody, human IgG1, kappa)
heavy: not shown
light: B12 light
notes: DVD-Ig, N-term PlGF (AB047) / C-term VEGF (AB071); also called DVD591VH; DVD591VL
IC50 [2]: 3.23 nM

B14: DVD581 (bispecific antibody, human IgG1, kappa)
heavy: not shown
light: DIVLTQSPDSLAVSLGERVTMNCKSSQSLLNSGMRKSFLAWYQQKPGQSPKLLIYWASTRESGVPDRFTGSGSGTDFTLTISSVQAEDVAVYYCKQSYHLFTFGSGTKLEIKRTVAAPSVFIFPPDIQMTQSPSSLSASVGDRVTITCRASQDVSTAVAWYQQKPGKAPKLLIYSASFLYSGVPSRFSGSGSGTDFTLTISSLQPEDFATYYCQQSYTTPPTFGQGTKVEIKRTVAAPSVFIFPPSDEQLKSGTASVVCLLNNFYPREAKVQWKVDNALQSGNSQESVTEQDSKDSTYSLSSTLTLSKADYEKHKVYACEVTHQGLSSPVTKSFNRGEC
notes: also called DVD581H; DVD581L
IC50 [2]: 3.5 nM

B15: DVD597 (bispecific antibody, human IgG1, kappa)
heavy: not shown
light: B14 light
notes: also called DVD597VH; DVD597VL
IC50 [2]: 2.94 nM
